Measurements as given in article PMC8383114.

Target: C18 (a CaM binding peptide from CaMKIIα)
Test: FRET or BRET

Substance: WT-CaM of the BRET construct (Venus, CaM, target peptide, RLuc8) (from UniProt P0DP26 1-149) (natural protein)
- Kd from the Ca2+ titration curve of the BRET construct: 3.92 µM
